Reference: article PMC5681435 (2017)

Assays:
GSTCDK4 = target: T1, GSTCDK4 (human, UniProt P11802 1-303); test: SPR
T1 chain: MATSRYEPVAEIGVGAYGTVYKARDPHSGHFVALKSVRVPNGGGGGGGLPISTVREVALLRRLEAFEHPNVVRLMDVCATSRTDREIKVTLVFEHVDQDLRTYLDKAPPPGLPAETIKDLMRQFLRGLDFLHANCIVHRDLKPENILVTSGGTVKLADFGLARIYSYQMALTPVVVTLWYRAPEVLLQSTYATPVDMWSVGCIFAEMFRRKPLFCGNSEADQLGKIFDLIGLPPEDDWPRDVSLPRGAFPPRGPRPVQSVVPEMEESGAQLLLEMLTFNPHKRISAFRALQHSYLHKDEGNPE

GSTCDK6 = GSTCDK6 (human, UniProt Q00534 1-326); test: SPR
Sequence of GSTCDK6 (Q00534 whole entry): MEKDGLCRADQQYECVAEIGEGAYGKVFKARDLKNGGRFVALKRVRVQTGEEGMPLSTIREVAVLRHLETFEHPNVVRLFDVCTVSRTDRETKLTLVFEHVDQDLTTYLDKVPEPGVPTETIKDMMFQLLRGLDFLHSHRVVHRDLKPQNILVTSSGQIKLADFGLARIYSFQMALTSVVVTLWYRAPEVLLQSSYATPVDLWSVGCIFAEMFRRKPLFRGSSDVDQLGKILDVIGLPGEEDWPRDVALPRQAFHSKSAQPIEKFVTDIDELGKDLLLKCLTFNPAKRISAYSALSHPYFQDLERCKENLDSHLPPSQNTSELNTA

B1: Cdc37 (analyte of the SPR titrations) (natural protein)
chain: MVDYSVWDHIEVSDDEDETHPNIDTASLFRWRHQARVERMEQFQKEKEELDRGCRECKRKVAECQRKLKELEVAEGGKAELERLQAEAQQLRKEERSWEQKLEEMRKKEKSMPWNVDTLSKDGFSKSMVNTKPEKTEEDSEEVREQKHKTFVEKYEKQIKHFGMLRRWDDSQKYLSDNVHLVCEETANYLVIWCIDLEVEEKCALMEQVAHQTIVMQFILELAKSLKVDPRACFRQFFTKIKTADRQYMEGFNDELEAFKERVRGRAKLRIEKAMKEYEEEERKKRLGPGGLDPVEVYESLPEELQKCFDVKDVQMLQDAISKMDPTDAKYHMQRCIDSGLWVPNSKASEAKEGEEAGPGDPLLEAVPKTGDEKDVSV
Work on B1 yielded a Kd (GSTCDK4) of 0.347 µM and a Kd (GSTCDK6) of 7 µM.
